Laboratory results taken from paper PMC7064499.

Biological target: FliPQR complex, V. mimicus (FliP5Q4R1) (Vibrio mimicus (strain DSM 19130))
Assay: cryo-EM structure

## FlhB, V. mimicus (natural protein)
  stoichiometry N: 1
